38 molecules from article PMC314469, “Protein Interaction Networks by Proteome Peptide Scanning” (PLoS Biology, 2004) can be followed below.

T1: amphyphisin SH3 (AMPH_HUMAN), P49418
T1 chain: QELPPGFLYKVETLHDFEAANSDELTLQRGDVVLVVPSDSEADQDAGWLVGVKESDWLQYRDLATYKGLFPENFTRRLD

B1: P17812 526-539 (peptide)
chain: HPEFLSRPIKPSPP
B2: P28749 775-788 (peptide)
chain: HSTGINRPKRTGSL
B3: O15488 104-117 (peptide)
chain: HLAFLKRPELGLTL
B4: Q9Y4C9 401-414 (peptide)
chain: HHGRIGRPPKYRKI
B5: P54368 201-214 (peptide)
chain: HPLVPKRPDASFMA
B6: Q96FM3 493-506 (peptide)
chain: HLWQPKRPAVPKKA
B7: Q9BXK1 213-226 (peptide)
chain: HPDLLRRPGARSTS
B8: Q9H6N9 66-79 (peptide)
chain: HTAEFRRPMATGDT
B9: O60747 405-419 (peptide)
chain: HHHLPERPPFIPEG
B10: P21917 231-244 (peptide)
chain: HGRAPRRPSGPGPP
B11: O15069 1001-1014 (peptide)
chain: IAEALSRPGREASL
B12: Q9Y2L9 5-19 (peptide)
chain: HGRLPARPPFYAPA
B13: Q9BXU7 768-781 (peptide)
chain: HTKNLLRPTKLNLQ
B14: Q9Y4V7 156-169 (peptide)
chain: HYLVPVRPRRQIVY
B15: P33551 65-78 (peptide)
chain: HILLFRRPLPKKPK
B16: O75163 275-288 (peptide)
chain: ALPRPIRPHRNISA
B17: Q02833 302-315 (peptide)
chain: ALPPPPRPDRGPPG
B18: BAC05287 132-146 (peptide)
chain: HVQSPEKPPTSPRE
B19: O14791 6-19 (peptide)
chain: HTVELRRPSSDMEG
B20: Q9P2Q2 580-594 (peptide)
chain: HKGLPPRPPSHNRP
B21: O43763 237-251 (peptide)
chain: ALPRPLRPPLPPDP
B22: Q9NR83 285-299 (peptide)
chain: ALPSPLRPPAPPLP
B23: P29350 24-37 (peptide)
chain: HGSFLARPSRKNQG
B24: P10163 94-108 (peptide)
chain: HPGKPERPPPQGGN
B25: Q9Y6X8 414-427 (peptide)
chain: AAPEPKRPHIAQVP
B26: P18031 304-318 (peptide)
chain: HIPPPPRPPKRILE
B27: O60281 1125-1138 (peptide)
chain: HKAHLIRPRRLTPG
B28: Q9H7P8 659-673 (peptide)
chain: HLSSPARPPDNLSP
B29: Q9H2L5 59-72 (peptide)
chain: IAWGLRRPIRLQMQ
B30: Q9HBK7 243-256 (peptide)
chain: HLLLFHRPLRASGA
B31: P02511 6-19 (peptide)
chain: HHPWIRRPFFPFHS
B32: Q99848 277-290 (peptide)
chain: HGRGLKRPGKKGSN
B33: Q9P2Y4 181-194 (peptide)
chain: HLHILHRPWKSGLS
B34: Q9H5T1 190-203 (peptide)
chain: HSFLINRPGKVKYM
B35: P33552 65-78 (peptide)
chain: HILLFRRPLPKDQQ
B36: Q9NWA6 173-186 (peptide)
chain: HQEKPERPLRGGKS
B37: Q8WWE0 14-27 (peptide)
chain: HRSHLRRPAAPPSP
B38: O75354 116-129 (peptide)
chain: HVFQFTRPPRETPT

In one assay the target is T1, amphyphisin SH3 (AMPH_HUMAN), P49418. As to the kind of experiment: SPOT array.
On to B1, for which the normalised SPOT signal, Boehringer light units (BLU); mean over the file's lines of this peptide amounted to 75.1.

In turn, B2 registered a normalised SPOT signal, Boehringer light units (BLU); mean over the file's lines of this peptide of 2890.

B3 had a normalised SPOT signal, Boehringer light units (BLU); mean over the file's lines of this peptide of 36.5.

In the case of B4, the normalised SPOT signal, Boehringer light units (BLU); mean over the file's lines of this peptide turned out to be 160.

B5 came in with a normalised SPOT signal, Boehringer light units (BLU); mean over the file's lines of this peptide of 125.

B6 yielded a normalised SPOT signal, Boehringer light units (BLU); mean over the file's lines of this peptide of 17.3.

On to B7, for which the normalised SPOT signal, Boehringer light units (BLU); mean over the file's lines of this peptide was 29.9.

The molecule B8 came in with a normalised SPOT signal, Boehringer light units (BLU); mean over the file's lines of this peptide of 45.7.

In turn, B9 yielded a normalised SPOT signal, Boehringer light units (BLU); mean over the file's lines of this peptide of 18.

B10 yielded a normalised SPOT signal, Boehringer light units (BLU); mean over the file's lines of this peptide of 35.4.

With B11, the normalised SPOT signal, Boehringer light units (BLU); mean over the file's lines of this peptide is 932.

In turn, B12 registered a normalised SPOT signal, Boehringer light units (BLU); mean over the file's lines of this peptide of 33.8.

Consider B13, for which the normalised SPOT signal, Boehringer light units (BLU); mean over the file's lines of this peptide came to 110.

B14 gave a normalised SPOT signal, Boehringer light units (BLU); mean over the file's lines of this peptide of 5140.

The molecule B15 came in with a normalised SPOT signal, Boehringer light units (BLU); mean over the file's lines of this peptide of 34.4.

In the case of B16, the normalised SPOT signal, Boehringer light units (BLU); mean over the file's lines of this peptide was 7780.

Regarding B17, the normalised SPOT signal, Boehringer light units (BLU); mean over the file's lines of this peptide is 847.

Take B18: the normalised SPOT signal, Boehringer light units (BLU); mean over the file's lines of this peptide came out at 49.7.

As for B19, the normalised SPOT signal, Boehringer light units (BLU); mean over the file's lines of this peptide amounted to 50.5.

Turning to B20, the normalised SPOT signal, Boehringer light units (BLU); mean over the file's lines of this peptide was determined as 326.

In turn, B21 showed a normalised SPOT signal, Boehringer light units (BLU); mean over the file's lines of this peptide of 553.

Turning to B22, the normalised SPOT signal, Boehringer light units (BLU); mean over the file's lines of this peptide is 299.

Consider B23, for which the normalised SPOT signal, Boehringer light units (BLU); mean over the file's lines of this peptide amounted to 2390.

In turn, B24 showed a normalised SPOT signal, Boehringer light units (BLU); mean over the file's lines of this peptide of 57.4.

B25 yielded a normalised SPOT signal, Boehringer light units (BLU); mean over the file's lines of this peptide of 7.5.

In the case of B26, the normalised SPOT signal, Boehringer light units (BLU); mean over the file's lines of this peptide stood at 3540.

Regarding B27, the normalised SPOT signal, Boehringer light units (BLU); mean over the file's lines of this peptide came to 1070.

For B28, the normalised SPOT signal, Boehringer light units (BLU); mean over the file's lines of this peptide was 95.5.

As to B29, the normalised SPOT signal, Boehringer light units (BLU); mean over the file's lines of this peptide is 489.

B30 returned a normalised SPOT signal, Boehringer light units (BLU); mean over the file's lines of this peptide of 1690.

In turn, B31 yielded a normalised SPOT signal, Boehringer light units (BLU); mean over the file's lines of this peptide of 17.6.

B32 returned a normalised SPOT signal, Boehringer light units (BLU); mean over the file's lines of this peptide of 26.

In the case of B33, the normalised SPOT signal, Boehringer light units (BLU); mean over the file's lines of this peptide came out at 217.

As to B34, the normalised SPOT signal, Boehringer light units (BLU); mean over the file's lines of this peptide came to 202.

As for B35, the normalised SPOT signal, Boehringer light units (BLU); mean over the file's lines of this peptide is 12.1.

B36 had a normalised SPOT signal, Boehringer light units (BLU); mean over the file's lines of this peptide of 9960.

B37 showed a normalised SPOT signal, Boehringer light units (BLU); mean over the file's lines of this peptide of 58.

In the case of B38, the normalised SPOT signal, Boehringer light units (BLU); mean over the file's lines of this peptide came to 4870.

For another assay, the target named is endophilin SH3 (SH3G2_HUMAN), Q99962. As to the kind of experiment: SPOT array.
For B1, the normalised SPOT signal, Boehringer light units (BLU); mean over the file's lines of this peptide stood at 45.5.

Turning to B2, the normalised SPOT signal, Boehringer light units (BLU); mean over the file's lines of this peptide turned out to be 224.

Regarding B3, the normalised SPOT signal, Boehringer light units (BLU); mean over the file's lines of this peptide was 28.8.

For the molecule B4, the normalised SPOT signal, Boehringer light units (BLU); mean over the file's lines of this peptide came out at 150.

The molecule B5 showed a normalised SPOT signal, Boehringer light units (BLU); mean over the file's lines of this peptide of 1970.

In the case of B6, the normalised SPOT signal, Boehringer light units (BLU); mean over the file's lines of this peptide worked out at 816.

Take B7: the normalised SPOT signal, Boehringer light units (BLU); mean over the file's lines of this peptide was 0.2.

Molecule B8 showed a normalised SPOT signal, Boehringer light units (BLU); mean over the file's lines of this peptide of 18.7.

B9: the normalised SPOT signal, Boehringer light units (BLU); mean over the file's lines of this peptide was 22.2.

On to B10, for which the normalised SPOT signal, Boehringer light units (BLU); mean over the file's lines of this peptide stood at 11100.

B11 returned a normalised SPOT signal, Boehringer light units (BLU); mean over the file's lines of this peptide of 142.

As to B12, the normalised SPOT signal, Boehringer light units (BLU); mean over the file's lines of this peptide was 775.

As for B13, the normalised SPOT signal, Boehringer light units (BLU); mean over the file's lines of this peptide came to 61.7.

The molecule B14 showed a normalised SPOT signal, Boehringer light units (BLU); mean over the file's lines of this peptide of 3150.

B15 had a normalised SPOT signal, Boehringer light units (BLU); mean over the file's lines of this peptide of 153.

The molecule B16 returned a normalised SPOT signal, Boehringer light units (BLU); mean over the file's lines of this peptide of 5490.

Molecule B17 yielded a normalised SPOT signal, Boehringer light units (BLU); mean over the file's lines of this peptide of 4520.

In turn, B18 showed a normalised SPOT signal, Boehringer light units (BLU); mean over the file's lines of this peptide of 49.6.

For the molecule B19, the normalised SPOT signal, Boehringer light units (BLU); mean over the file's lines of this peptide worked out at 27.4.

As for B20, the normalised SPOT signal, Boehringer light units (BLU); mean over the file's lines of this peptide was determined as 5020.

B21 displayed a normalised SPOT signal, Boehringer light units (BLU); mean over the file's lines of this peptide of 3470.

Molecule B22 had a normalised SPOT signal, Boehringer light units (BLU); mean over the file's lines of this peptide of 1950.

As to B23, the normalised SPOT signal, Boehringer light units (BLU); mean over the file's lines of this peptide amounted to 308.

Molecule B24 had a normalised SPOT signal, Boehringer light units (BLU); mean over the file's lines of this peptide of 794.

In turn, B25 displayed a normalised SPOT signal, Boehringer light units (BLU); mean over the file's lines of this peptide of 108.

As to B26, the normalised SPOT signal, Boehringer light units (BLU); mean over the file's lines of this peptide was 4140.

The molecule B27 gave a normalised SPOT signal, Boehringer light units (BLU); mean over the file's lines of this peptide of 1790.

Regarding B28, the normalised SPOT signal, Boehringer light units (BLU); mean over the file's lines of this peptide was 76.9.

The molecule B29 yielded a normalised SPOT signal, Boehringer light units (BLU); mean over the file's lines of this peptide of 846.

With B30, the normalised SPOT signal, Boehringer light units (BLU); mean over the file's lines of this peptide turned out to be 33.5.

B31 returned a normalised SPOT signal, Boehringer light units (BLU); mean over the file's lines of this peptide of 1870.

B32 had a normalised SPOT signal, Boehringer light units (BLU); mean over the file's lines of this peptide of 71.6.

In turn, B33 registered a normalised SPOT signal, Boehringer light units (BLU); mean over the file's lines of this peptide of 28.3.

Regarding B34, the normalised SPOT signal, Boehringer light units (BLU); mean over the file's lines of this peptide was found to be 117.

B35 registered a normalised SPOT signal, Boehringer light units (BLU); mean over the file's lines of this peptide of 40.

B36: the normalised SPOT signal, Boehringer light units (BLU); mean over the file's lines of this peptide was 2060.

As to B37, the normalised SPOT signal, Boehringer light units (BLU); mean over the file's lines of this peptide is 55.2.

Turning to B38, the normalised SPOT signal, Boehringer light units (BLU); mean over the file's lines of this peptide was 171.
